For assay [1], the target named is T1, LRP1 cluster II (LRP1-C2) (Homo sapiens, UniProt Q07954).
T1 construct: recombinant human LRP1 cluster II (amino acids 786-1165, with C-terminal Fc tag); purchased R&D Systems; host or cells: NS0
T1 sequence (Q07954 786-1165): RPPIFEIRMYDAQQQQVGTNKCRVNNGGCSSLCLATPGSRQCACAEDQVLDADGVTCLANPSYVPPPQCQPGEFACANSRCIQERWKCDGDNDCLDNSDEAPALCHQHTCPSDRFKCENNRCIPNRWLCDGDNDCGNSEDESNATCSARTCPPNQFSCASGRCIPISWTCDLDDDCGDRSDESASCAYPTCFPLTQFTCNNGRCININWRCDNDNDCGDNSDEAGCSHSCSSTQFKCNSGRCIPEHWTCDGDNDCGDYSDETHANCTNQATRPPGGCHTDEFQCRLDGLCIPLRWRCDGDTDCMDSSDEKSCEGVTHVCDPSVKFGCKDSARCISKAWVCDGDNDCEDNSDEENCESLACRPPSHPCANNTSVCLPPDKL
The experiment in a line: Inhibition of RAP d3 binding to LRP1-C2 (ELISA). Here is the method:
Binding inhibition assays were also carried out to determine the ability of the mRAPc peptide to interfere with RAP d3 binding to LRP1 (cluster II), as well as binding of LRP ligands α-2-macroglobulin and uPA/PAI-1. To allow complexation with streptavidin or an anti-biotin antibody, the mRAPc peptide was fitted with an N-terminal biotin residue separated from the RAP sequence by a pentapeptide linker (GGSGG). Solid phase binding assays were performed using recombinant human LRP1 cluster II (amino acids 786-1165, with C-terminal Fc tag, 1 μg, R&D Systems, Minneapolis, Minn.) to coat Nunc MAXISORP™ 96-well plates in TBS pH 8 supplemented with 5 mM CaCl2 (TBSC) overnight at 4° C. Data was generated by ELISA assay. Wells were washed with TBSC and blocked with TBSC containing 2% BSA. In assays involving complexes between streptavidin and biotinylated peptide, LRP1 ligands (RAP d3 (2 nM), trypsin-activated α-2-macroglobulin (1 nM) or uPA/PAI-1 (10 nM) were incubated with the immobilized receptor, in the presence or absence of inhibitors, for 2 hours in the above blocking buffer supplemented with 0.05% Tween-20 at room temperature. In assays involving complexes of the anti-biotin antibody and biotinylated peptide, all inhibitor solutions were pre-incubated with immobilized LRP1-C2 prior to washing and subsequent incubation with ligand. Since the ligand binding competence of CR pairs requires calcium, identical binding reactions were done in the presence of 50 mM EDTA to provide a measure of non-specific binding. Control wells contained no added inhibitor. Wells were washed with TBS supplemented with 5 mM CaCl2 and 0.05% Tween-20. Bound ligand was detected with either anti-S-peptide-HRP conjugate (Abcam, Cambridge, Mass.), anti-α-2-macroglobulin-HRP or anti-PAI-1-HRP. Excess HRP conjugate was removed and wells washed. Color was developed using TMB reagents (BioRad, Hercules, Calif.). Absorption at 450 nm was measured with a microplate spectrophotometer (Molecular Devices, Palo Alto, Calif.).
The ability of mRAPc, in the presence and absence of either streptavidin or anti-biotin antibody, to inhibit binding of recombinant RAP d3 to LRP1-C2 was measured. […] The multifold enhancement of inhibition seen in the presence of streptavidin is consistent with an improvement in avidity upon multimerization of the minimized RAP domain.
Given the relatively weak monovalent affinity of the anti-biotin antibody for biotin (low nanomolar KD), it was hypothesized that preassembly of a multivalent complex consisting of two, suitably proximate, receptor-bound peptides and a single antibody would stabilize the peptide-antibody complex. Therefore, the antibody and peptide, in a molar ratio of one to three, was incubated with the immobilized receptor prior to washing and subsequent addition of the RAP d3 ligand. The same procedure was performed for the controls; peptide alone, antibody alone and RAP. […] Next the effect of the multimerized mRAPc was determined. The multimerized mRAPc was compared to the mRAPc monomer and full-length RAP in the inhibition of binding of two other ligands to LRP1-C2, trypsin-activated α-2-macroglobulin and the uPA/PAI-1 complex, at a single ligand concentration. […] In both cases, the complex of streptavidin and mRAPc inhibited binding with an EC50 approximately midway between RAP and the mRAPc monomer.
(In an ELISA, binding on a coated surface is turned into a signal by an enzyme label.)

For a further assay, the system named is LDLR, LRP5 and LRP6. To be noted: cited from earlier work.
Assay [2] addresses LRP1, LRP1B, LRP2, SorLA, apoER2 and VLDLR. The note with it: read-out: dissociation constants; cited from earlier work.
The next assay has as its target T2, rhLRP1 cluster II (Homo sapiens, UniProt Q07954).
T2 construct: rhLRP1 cluster II (aa 786-1165, C-terminal Fc, 1 μg); purchased R&D Systems; host or cells: NS0
T2 sequence (Q07954 786-1165): T1 sequence (Q07954 786-1165)
The experiment in a line: Solid phase binding assay of RAP peptides. Here is the method: Solid phase binding assays were carried out as follows. Recombinant murine VLDLR ectodomain (aa 1-798, C-terminal hexahistidine, 1 μg) or rhLRP1 cluster II (aa 786-1165, C-terminal Fc, 1 μg) were bound to Nunc Maxisorp™ 96-well plates in TBS pH 8 supplemented with 5 mM CaCl2 (TBSC) overnight at 4° C. Wells were washed with TBSC and then blocked with TBSC containing 2% BSA. Peptides were then incubated with the immobilized receptor at a range of concentrations for 2 hours in the above blocking buffer supplemented with 0.05% Tween-20 at room temperature. Identical binding reactions were done in the presence of 50 mM EDTA to provide a measure of non-specific binding. Control wells contained no added peptide. Additional controls established absence of cross-reactivity between antibodies and receptors. Wells were washed with TBSTC and bound peptides detected with streptavidin-HRP (Pierce) or polyclonal anti-RAP (1:1,000, Raptor Pharmaceutical). […] Absorption at 450 nm was measured with a microplate spectrophotometer (Molecular Devices). […]
The binding affinity of the peptides for LRP1 and VLDLR, another receptor in the LDLR family, was measured as follows. […] Bound peptides were detected with streptavidin-HRP after extensive washing. Binding values measured in the presence of EDTA were subtracted from values measured in the absence of EDTA in order to determine calcium-dependent binding levels. […]

Read-outs that look alike come from different tables or passages of the source. Positions of bridges follow the written chain, without caps; N, C: chain ends. No end group written: not given here. A value given as a limit tells only on which side of the number the result lay.

Consider three substances from US8440629B2, “Cyclic receptor-associated protein (RAP) peptides” (Raptor Pharmaceuticals Inc., priority 2007, dated 2013).

For the substance “RAP: receptor-associated protein, mature human RAP (SEQ ID NO: 95)”, the “EC50 better than peptide assembled on streptavidin” value in assay [1] (FIG. 14A) is “about 8 fold”. Moreover, the “EC50 improvement over monomeric mRAPc peptide” value in assay [1] (FIG. 14A) is recorded as 64 fold. The EC50 in assay [1] (inhibitor pre-incubated with immobilized receptor, washed, then ligand, FIG. 14B, read-out: EC50 of inhibition of RAP d3 binding) was 0.3 nM; in assay [1] (ligand and inhibitor incubated together, FIG. 14A, read-out: degree of inhibition (EC50) of RAP d3 binding), 0.5 nM. Moreover, the “affinity lower than for LRP1” value in the assay on LDLR, LRP5 and LRP6 is “at least 10 fold”. For the same substance, in assay [2], the Kd is below 5 nM.
Regarding “streptavidin: streptavidin alone, control”, the “inhibitory effect (in words)” value in assay [1] (ligand and inhibitor incubated together) is “no inhibitory effect”.
Consider “CEAKIEKHNHYQKQLEIAHEKLRHAESVGDGERVSRSREKHALLEGRTKELGYTVKKHGC (disulfide 1-60) [mRAP-14c]”, for which, on rhLRP1 cluster II, the Kd was around 21 nM.

A word on the EC50: it is the concentration needed to bring the measured effect to its halfway point.
